Columns and labels:
[1] = target: T1, synthesized peptide CSPQIEDPSQC (SEQ ID NO: 127), E168D; assay: PEPSCAN ELISA on synthesized peptides
T1 construct: Core EDPSQ, E168D mutation of c-Met
T1 peptide: CSPQIEDPSQC
Experimental: (§1) The peptides were maintained at room temperature for 30 minutes by using a 5% blocking solution to provoke a reaction (4% ovalbumin, 5% horse serum, and 1% Tween 80). […] Thereafter, the resultant product was treated with rabbit-anti-sheep antibody (SIGMA) and washed with PBS, and the washed product was then treated with peroxidase-attached swine-anti-rabbit antibody (SIGMA) and washed with PBS. Then, the resultant was treated with 2 ul/ml of peroxidase 2,2′-azino-di-3-ethylbenzthiazoline sulfonate (ABTS) (SIGMA) in 3% H₂O₂, and a color reaction was measured after 1 hour.

[2] = target: T2, synthesized peptide CQIEDPSQAPC (SEQ ID NO: 129), E168D; assay: PEPSCAN ELISA on synthesized peptides
T2 construct: Core EDPSQ, E168D mutation of c-Met
T2 peptide: CQIEDPSQAPC
Experimental: as §1

[3] = target: T3, synthesized peptide CIEDPSQAPDC (SEQ ID NO: 130), E168D; assay: PEPSCAN ELISA on synthesized peptides
T3 construct: Core EDPSQ, E168D mutation of c-Met
T3 peptide: CIEDPSQAPDC
Experimental: as §1

[4] = target: T4, peptide EEPSQ (SEQ ID NO: 73); assay: Biacore, huAbF46 immobilized on CM5 chip, peptide injected
T4 peptide: EEPSQ

[5] = target: T5, peptide AEPSQ (SEQ ID NO: 133); assay: as above
T5 peptide: AEPSQ

[6] = target: T6, peptide EAPSQ (SEQ ID NO: 134); assay: as above
T6 peptide: EAPSQ

[7] = target: T7, peptide EEASQ (SEQ ID NO: 135); assay: as above
T7 peptide: EEASQ

[8] = target: T8, peptide EEPAQ (SEQ ID NO: 136); assay: as above
T8 peptide: EEPAQ

[9] = target: T9, peptide EEPSA (SEQ ID NO: 137); assay: as above
T9 peptide: EEPSA

[10] = target: c-Met on MKN45 stomach cancer cells (human, UniProt P08581 25-1390); assay: cell-based or functional assay
[11] = target: T10, EGFR-Fc (#344-ER, R&D Systems) (UniProt P00533 25-645); assay: Biacore T100, antibody captured by human Fab capturer on CM5 chip, EGFR-Fc injected
T10 construct: Bought reagent; only name and catalogue number are printed; not shown: Fc part of the bought fusion protein
Experimental: (§2) The anti-c-Met/anti-EGFR bispecific antibody was analyzed for affinity for the two antigens (c-Met/EGFR) using a Biacore T100 instrument (GE). […] The chip surface was regenerated by injecting a 10 mM Glycine-HCl solution (pH 1.5). For affinity evaluation, the data was fitted using the BIAevaluation software (GE Healthcare, Biacore T100 evaluation software).

[12] = target: T11, human c-Met/Fc fusion protein (R&D Systems) (human, UniProt P08581 25-932); assay: Biacore T100, antibody captured by human Fab capturer on CM5 chip, c-Met-Fc injected
T11 construct: Bought reagent; Treated as one molecule; also called c-Met-Fc (#358-MT/CF, R&D Systems); human c-Met/Fc protein; not shown: Fc part of the bought fusion protein
Experimental: as §2

T11 sequence (P08581 25-932 limits assumed): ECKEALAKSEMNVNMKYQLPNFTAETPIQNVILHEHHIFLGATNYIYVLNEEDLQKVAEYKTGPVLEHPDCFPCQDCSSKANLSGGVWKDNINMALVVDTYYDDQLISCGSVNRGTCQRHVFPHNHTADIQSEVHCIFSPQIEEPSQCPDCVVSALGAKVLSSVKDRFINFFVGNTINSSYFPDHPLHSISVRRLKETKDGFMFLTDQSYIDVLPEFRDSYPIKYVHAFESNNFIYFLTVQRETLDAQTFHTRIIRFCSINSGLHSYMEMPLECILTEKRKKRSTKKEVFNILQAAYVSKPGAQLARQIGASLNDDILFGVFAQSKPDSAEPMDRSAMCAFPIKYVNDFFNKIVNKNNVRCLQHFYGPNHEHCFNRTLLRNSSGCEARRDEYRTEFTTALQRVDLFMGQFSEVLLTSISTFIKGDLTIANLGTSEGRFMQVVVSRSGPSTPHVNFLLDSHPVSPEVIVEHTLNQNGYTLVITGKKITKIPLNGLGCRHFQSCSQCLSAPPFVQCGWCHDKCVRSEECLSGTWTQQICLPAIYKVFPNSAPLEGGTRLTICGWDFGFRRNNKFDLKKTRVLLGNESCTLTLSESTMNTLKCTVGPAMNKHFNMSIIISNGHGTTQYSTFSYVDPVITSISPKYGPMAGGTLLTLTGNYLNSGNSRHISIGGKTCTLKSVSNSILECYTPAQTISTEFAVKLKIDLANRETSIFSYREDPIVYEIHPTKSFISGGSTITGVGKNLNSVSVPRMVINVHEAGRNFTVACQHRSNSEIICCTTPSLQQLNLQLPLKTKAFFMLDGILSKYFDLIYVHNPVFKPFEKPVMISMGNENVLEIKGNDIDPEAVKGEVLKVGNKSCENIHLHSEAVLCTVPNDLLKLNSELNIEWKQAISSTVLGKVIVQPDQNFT
Sequence of c-Met on MKN45 stomach cancer cells (P08581 25-1390): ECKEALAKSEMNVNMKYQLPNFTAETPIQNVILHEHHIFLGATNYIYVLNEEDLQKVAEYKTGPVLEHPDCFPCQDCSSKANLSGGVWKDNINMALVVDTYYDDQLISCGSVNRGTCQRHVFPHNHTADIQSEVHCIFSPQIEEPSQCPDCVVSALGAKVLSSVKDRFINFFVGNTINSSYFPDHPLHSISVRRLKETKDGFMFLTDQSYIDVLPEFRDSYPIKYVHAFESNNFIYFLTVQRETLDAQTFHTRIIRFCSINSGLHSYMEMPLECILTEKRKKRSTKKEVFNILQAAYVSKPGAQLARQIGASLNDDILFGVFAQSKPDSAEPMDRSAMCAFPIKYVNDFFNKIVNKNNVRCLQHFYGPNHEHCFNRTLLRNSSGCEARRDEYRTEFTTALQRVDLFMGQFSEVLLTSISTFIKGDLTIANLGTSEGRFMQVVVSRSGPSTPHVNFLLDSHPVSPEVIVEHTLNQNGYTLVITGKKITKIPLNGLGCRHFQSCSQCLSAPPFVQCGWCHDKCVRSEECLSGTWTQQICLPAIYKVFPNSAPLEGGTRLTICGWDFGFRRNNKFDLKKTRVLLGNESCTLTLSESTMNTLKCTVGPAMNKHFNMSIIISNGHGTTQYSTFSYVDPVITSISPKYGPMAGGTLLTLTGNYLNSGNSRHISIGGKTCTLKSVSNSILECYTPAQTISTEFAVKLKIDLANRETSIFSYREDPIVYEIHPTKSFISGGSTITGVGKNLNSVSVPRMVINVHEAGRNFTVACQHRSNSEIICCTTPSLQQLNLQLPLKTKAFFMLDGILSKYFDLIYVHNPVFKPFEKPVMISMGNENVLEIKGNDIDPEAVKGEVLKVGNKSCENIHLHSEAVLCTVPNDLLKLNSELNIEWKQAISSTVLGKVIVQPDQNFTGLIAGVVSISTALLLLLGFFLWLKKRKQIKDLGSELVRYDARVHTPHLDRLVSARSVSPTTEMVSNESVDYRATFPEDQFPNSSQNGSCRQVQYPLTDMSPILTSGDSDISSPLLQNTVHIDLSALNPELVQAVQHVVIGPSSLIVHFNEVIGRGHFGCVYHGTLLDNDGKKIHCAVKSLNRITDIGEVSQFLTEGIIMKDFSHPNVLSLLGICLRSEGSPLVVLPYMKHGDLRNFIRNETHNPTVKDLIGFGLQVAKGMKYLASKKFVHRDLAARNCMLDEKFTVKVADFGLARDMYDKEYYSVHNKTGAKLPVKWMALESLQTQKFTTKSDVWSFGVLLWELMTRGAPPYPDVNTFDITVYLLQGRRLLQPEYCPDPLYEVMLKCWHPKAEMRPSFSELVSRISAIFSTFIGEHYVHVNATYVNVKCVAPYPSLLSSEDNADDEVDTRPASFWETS

B1: humanized antibody huAbF46 (H4-heavy / H4-light) (antibody, V domains shown)
VH: EVQLVESGGGLVQPGGSLRLSCAASGFTFTDYYMSWVRQAPGKGLEWLGFIRNKANGYTTEYSASVKGRFTISRDNSKNTLYLQMNSLRAEDTAVYYCARDNWFAYWGQGTLVTVSS
VL: DIQMTQSPSSLSASVGDRVTITCKSSQSLLASGNQNNYLAWHQQKPGKAPKMLIIWASTRVSGVPSRFSGSGSGTDFTLTISSLQPEDFATYYCQQSYSAPLTFGQGTKVEIKR
notes: Purified on Protein A as a whole antibody; also called humanized antibody AbF46
B1: no binding [1]; no binding [2]; no binding [3]. For the same binder, the Kd [4] was 1.64 nM, the binding result [5] was “no binding (tested: 100 nM to 0.39 nM of the peptides)” and the binding result [6] was “no binding (tested: 100 nM to 0.39 nM of the peptides)”. For the same binder, the binding result [7] was “no binding (tested: 100 nM to 0.39 nM of the peptides)”, the Kd [8] was 1.43 nM and the binding result [9] was “no binding (tested: 100 nM to 0.39 nM of the peptides)”.

B2: anti-c-Met/anti-EGFR bispecific antibody ME-03 (bispecific antibody)
heavy: EVQLVESGGGLVQPGGSLRLSCAASGFTFTDYYMSWVRQAPGKGLEWLGFIRNKANGYTTEYSASVKGRFTISRDNSKNTLYLQMNSLRAEDTAVYYCARDNWFAYWGQGTLVTVSSASTKGPSVFPLAPCSRSTSESTAALGCLVKDYFPEPVTVSWNSGALTSGVHTFPAVLQSSGLYSLSSVVTVPSSNFGTQTYTCNVDHKPSNTKVDKTVERKCCVECPPCPAPPVAGPSVFLFPPKPKDTLMISRTPEVTCVVVDVSHEDPEVQFNWYVDGVEVHNAKTKPREEQFNSTFRVVSVLTVVHQDWLNGKEYKCKVSNKGLPAPIEKTISKTKGQPREPQVYTLPPSREEMTKNQVSLTCLVKGFYPSDIAVEWESNGQPENNYKTTPPMLDSDGSFFLYSKLTVDKSRWQQGNVFSCSVMHEALHNHYTQKSLSLSPGKGGGGSGGGGSQVQLVQSGAEVKKPGSSVKVSCKASGFTFTDYKIHWVRQAPGQGLEWMGYINPNSGYSTYASKFQGRVTITADKSTSTAYMELSSLRSEDTAVYYCARLSPGGYYVMDAWGQGTTVTVSSGGGGSGGGGSGGGGSDIQMTQSPSSLSASVGDRVTITCRASQGINNYLNWYQQKPGKAPKLLIYNTNNLQTGVPSRFSGSGSGTEFTLTISSLQPEDEATYYCLQHNSFPTFGQGTKLEIKRT
light: DIQMTQSPSSLSASVGDRVTITCKSSQSLLASGNQNNYLAWYQQKPGKAPKMLIIWASTRVSGVPSRFSGSGSGTDFTLTISSLQPEDFATYYCQQSYSRPYTFGQGTKVEIKRTVAAPSVFIFPPSDEQLKSGTASVVCLLNNFYPREAKVQWKVDNALQSGNSQESVTEQDSKDSTYSLSSTLTLSKADYEKHKVYACEVTHQGLSSPVTKSFNRGEC
In the case of B2, the “c-Met degradation (relative total amount of c-Met, ELISA of lysates of MKN45 cells treated 24 hrs with 5 µg/ml antibody)” value [10] is reported as 88.4%.

B3: anti-c-Met/anti-EGFR bispecific antibody ME-01 (bispecific antibody)
heavy: EVQLVESGGGLVQPGGSLRLSCAASGFTFTDYYMSWVRQAPGKGLEWLGFIRNKANGYTTEYSASVKGRFTISRDNSKNTLYLQMNSLRAEDTAVYYCARDNWFAYWGQGTLVTVSSASTKGPSVFPLAPCSRSTSESTAALGCLVKDYFPEPVTVSWNSGALTSGVHTFPAVLQSSGLYSLSSVVTVPSSNFGTQTYTCNVDHKPSNTKVDKTVERKCCVECPPCPAPPVAGPSVFLFPPKPKDTLMISRTPEVTCVVVDVSHEDPEVQFNWYVDGVEVHNAKTKPREEQFNSTFRVVSVLTVVHQDWLNGKEYKCKVSNKGLPAPIEKTISKTKGQPREPQVYTLPPSREEMTKNQVSLTCLVKGFYPSDIAVEWESNGQPENNYKTTPPMLDSDGSFFLYSKLTVDKSRWQQGNVFSCSVMHEALHNHYTQKSLSLSPGKGGGGSGGGGSQVQLVQSGAEVKKPGSSVKVSCKASGFTFTDYKIHWVRQAPGQGLEWMGYFNPNSGYSTYAQKFQGRVTITADKSTSTAYMELSSLRSEDTAVYYCARLSPGGYYVMDAWGQGTTVTVSSGGGGSGGGGSGGGGSDIQMTQSPSSLSASVGDRVTITCRASQGINNYLNWYQQKPGKAPKRLIYNTNNLQTGVPSRFSGSGSGTEFTLTISSLQPEDFATYYCLQHNSFPTFGQGTKLEIKRT
light: DIQMTQSPSSLSASVGDRVTITCKSSQSLLASGNQNNYLAWYQQKPGKAPKMLIIWASTRVSGVPSRFSGSGSGTDFTLTISSLQPEDFATYYCQQSYSRPYTFGQGTKVEIKRTVAAPSVFIFPPSDEQLKSGTASVVCLLNNFYPREAKVQWKVDNALQSGNSQESVTEQDSKDSTYSLSSTLTLSKADYEKHKVYACEVTHQGLSSPVTKSFNRGEC
For B3, the “c-Met degradation (relative total amount of c-Met, ELISA of lysates of MKN45 cells treated 24 hrs with 5 µg/ml antibody)” value [10] was 86.8%.

B4: anti-c-Met/anti-EGFR bispecific antibody ME-03S (bispecific antibody)
heavy: EVQLVESGGGLVQPGGSLRLSCAASGFTFTDYYMSWVRQAPGKGLEWLGFIRNKANGYTTEYSASVKGRFTISRDNSKNTLYLQMNSLRAEDTAVYYCARDNWFAYWGQGTLVTVSSASTKGPSVFPLAPCSRSTSESTAALGCLVKDYFPEPVTVSWNSGALTSGVHTFPAVLQSSGLYSLSSVVTVPSSNFGTQTYTCNVDHKPSNTKVDKTVERKCCVECPPCPAPPVAGPSVFLFPPKPKDTLMISRTPEVTCVVVDVSHEDPEVQFNWYVDGVEVHNAKTKPREEQFNSTFRVVSVLTVVHQDWLNGKEYKCKVSNKGLPAPIEKTISKTKGQPREPQVYTLPPSREEMTKNQVSLTCLVKGFYPSDIAVEWESNGQPENNYKTTPPMLDSDGSFFLYSKLTVDKSRWQQGNVFSCSVMHEALHNHYTQKSLSLSPGKGGGGSGGGGSQVQLVQSGAEVKKPGSSVKVSCKASGFTFTDYKIHWVRQAPGQCLEWMGYINPNSGYSTYASKFQGRVTITADKSTSTAYMELSSLRSEDTAVYYCARLSPGGYYVMDAWGQGTTVTVSSGGGGSGGGGSGGGGSDIQMTQSPSSLSASVGDRVTITCRASQGINNYLNWYQQKPGKAPKLLIYNTNNLQTGVPSRFSGSGSGTEFTLTISSLQPEDEATYYCLQHNSFPTFGQCTKLEIKRT
light: DIQMTQSPSSLSASVGDRVTITCKSSQSLLASGNQNNYLAWYQQKPGKAPKMLIIWASTRVSGVPSRFSGSGSGTDFTLTISSLQPEDFATYYCQQSYSRPYTFGQGTKVEIKRTVAAPSVFIFPPSDEQLKSGTASVVCLLNNFYPREAKVQWKVDNALQSGNSQESVTEQDSKDSTYSLSSTLTLSKADYEKHKVYACEVTHQGLSSPVTKSFNRGEC
notes: Secondary mutant (disulfide-stabilised) anti-EGFR scFv fused to the C-terminus of the Fc of L3-1Y-IgG2
In the case of B4, the Kd [11] is reported as 0.12 nM, the koff [11] is reported as 2.7e-05 s⁻¹ and the kon [11] is reported as 240000 M⁻¹ s⁻¹. The Kd [12] was 0.23 nM, the koff [12] was 0.00016 s⁻¹ and the kon [12] was 670000 M⁻¹ s⁻¹.
